T1: mouse recombinant TGF-β2 (mouse) (UniProt P27090)
T1 sequence (looked up): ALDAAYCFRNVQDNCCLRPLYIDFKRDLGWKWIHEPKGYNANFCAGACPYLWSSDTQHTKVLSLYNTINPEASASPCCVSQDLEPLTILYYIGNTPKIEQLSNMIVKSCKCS

T2: human recombinant TGF-β2 (human)
T2 sequence: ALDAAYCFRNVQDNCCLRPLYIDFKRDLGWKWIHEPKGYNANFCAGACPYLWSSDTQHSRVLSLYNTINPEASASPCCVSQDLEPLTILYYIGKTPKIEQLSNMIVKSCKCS

T3: human TGF-β3 (human) (UniProt P10600)
T3 sequence: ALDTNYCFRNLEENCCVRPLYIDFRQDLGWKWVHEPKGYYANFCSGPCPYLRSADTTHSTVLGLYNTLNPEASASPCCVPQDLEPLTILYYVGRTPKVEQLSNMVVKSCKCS

B1: CAT-152 (antibody, INN chains, looked up, human IgG4, V domains shown)
VH: EVQLVESGGGVVQPGRSLRLSCAASGFTFSSYGMHWVRQAPGKGLEWVAVIWYDGSNKYYADSVKGRFTISRDNSKNTLYLQMDSLRAEDTAVYYCGRTLESSLWGQGTLVTVSS
VL: SSELTQDPAVSVALGQTVRITCQGDSLRSYYASWYQQKPGQAPVLVIYGKNNRPSGIPDRFSGSSSGNTASLTITGAQAEDEADYYCNSRDSSSTHRGVFGGGTKLTVL
B2: 1D11 (antibody, from another filing, V domains shown)
VH: QVQLQQSGPELVRPGASVKLSCKASGYIFITYWMNWVKQRPGQGLEWIGQIFPASGSTNYNEMFEGKATLTVDTSSSTAYMQLSSLTSEDSAVYYCARGDGNYALDAMDYWGQGTSVTVSS
VL: DIVLTQSPASLAVSLGQRATISCRASESVDSYGNSFMHWYQQKSGQPPKLLIYLASNLESGVPARFSGSGSRTDFTLTIDPVEADDAATYYCQQNNEDPLTFGAGTKLEIK

How the values were obtained:
[1] = target: T1, mouse recombinant TGF-β2 (mouse); experiment: cell-based or functional assay
[2] = target: T2, human recombinant TGF-β2 (human); experiment: cell-based or functional assay
human TGF-β1 (human) = human TGF-β1 (human) (UniProt P01137); experiment: cell-based or functional assay
human TGF-β1 (human), sequence (P01137 279-390 limits assumed): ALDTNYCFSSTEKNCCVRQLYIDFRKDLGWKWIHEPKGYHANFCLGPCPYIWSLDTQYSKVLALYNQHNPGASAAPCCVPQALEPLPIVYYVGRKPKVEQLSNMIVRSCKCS

human TGF-β3 (human) [3] = target: T3, human TGF-β3 (human); experiment: cell-based or functional assay
[4] = target: T2, human recombinant TGF-β2 (human); experiment: ratio of the KD values of Table 4
[5] = target: T2, human recombinant TGF-β2 (human); experiment: BiaCORE (surface plasmon resonance)
human TGF-β3 (human) [6] = target: T3, human TGF-β3 (human); experiment: BiaCORE (surface plasmon resonance)
[7] = target: T1, mouse recombinant TGF-β2 (mouse)

Binder	RGA (CAGA-12 luc/Smad-2/3 RGA; IC 50 [pM]) [1] [pM]	RGA (CAGA-12 luc/Smad-2/3 RGA; IC 50 [pM]) [2] [pM]	RGA (CAGA-12 luc/Smad-2/3 RGA; IC 50 [pM]) (human TGF-β1 (human)) [pM]	RGA (CAGA-12 luc/Smad-2/3 RGA; IC 50 [pM]) (human TGF-β3 (human) [3]) [pM]	fold lower KD for TGFβ2 than for TGFbeta 3 [4] [fold]	Kd [5] [nM]	Kd (human TGF-β3 (human) [6]) [nM]	IC50 (read off the curve) (CAGA-12 luciferase reporter gene assay, HEK293T/17) [7] [nM]
B1	298	26	> 100000	1230	16	0.073	1.18	0.3
B2	> 100000							

— patent US20190092846A1
